Experimental data: patent US20230406885A1, “CYCLIC PEPTIDES FOR TRAPPING INTERLEUKIN-1 BETA” (MERCK SHARP & DOHME LLC, priority 2022, published 2023)
*1 amine or outer side, *2 acyl side, *3 side chain or, on linkers, in order; H or OH if unused. [ ]: non-standard residue; d: D form. TyrEtNAc = L-tyrosine O-ethyl acetamide, (S)-3-(4-(2-acetamidoethoxy)phenyl)-2-aminopropanoic acid, CC(=O)NCCOc1ccc(C[C@H](N[*:1])C(=O)[*:2])cc1; 3Pal4Ph4CO2H = (S)-4-(5-(2-amino-2-carboxyethyl)pyridin-2-yl)benzoic acid, O=C([C@H](Cc1ccc(-c2ccc(C(=O)[*:3])cc2)nc1)N[*:1])[*:2]; Pro(trans-4-NH2) = O=C([C@@H]1C[C@@H](N[*:3])CN1[*:1])[*:2]; Bip(4'-COOH) = N[C@@H](Cc1ccc(-c2ccc(C(=O)O)cc2)cc1)C(=O)O; 1Nal(3S-Me) = C[C@@H](c1cccc2ccccc12)[C@H](N)C(=O)O; Ala(pyrimidin-5-yl) = N[C@@H](Cc1cncnc1)C(=O)O; Phe(4-COOH) = N[C@@H](Cc1ccc(C(=O)O)cc1)C(=O)O; Trp(7-aza) = N[C@@H](Cc1c[nH]c2ncccc12)C(=O)O; h3Pal(5-CN) = N#Cc1cncc(CC[C@H](N)C(=O)O)c1; hTyr = N[C@@H](CCc1ccc(O)cc1)C(=O)O; hPhe = N[C@@H](CCc1ccccc1)C(=O)O; dDab = NCC[C@@H](N)C(=O)O; dNMeA = CN[C@H](C)C(=O)O; Dab = NCC[C@H](N)C(=O)O; Dap = NC[C@H](N)C(=O)O; Aib = CC(C)(N)C(=O)O

Biological target: Recombinant human IL-1β (BioLegend 579404) (human, UniProt P01584 117-269)
Assay: cell-based or functional assay

Binder | MRC5 IC50 [nM]
cyclo([TyrEtNAc]W[Phe(4-COOH)]G[Pro(trans-4-NH2)][1Nal(3S-Me)]D[dNMeA]G[Bip(4'-COOH)]W[Dab][dA][hPhe]) (SMILES CC(=O)NCCOc1ccc(C[C@@H]2NC(=O)[C@H](CCc3ccccc3)NC(=O)[C@@H](C)NC(=O)[C@H](CCN)NC(=O)[C@H](Cc3c[nH]c4ccccc34)NC(=O)[C@H](Cc3ccc(-c4ccc(C(=O)O)cc4)cc3)NC(=O)CNC(=O)[C@@H](C)N(C)C(=O)[C@H](CC(=O)O)NC(=O)[C@H]([C@@H](C)c3cccc4ccccc34)NC(=O)[C@@H]3C[C@@H](N)CN3C(=O)CNC(=O)[C@H](Cc3ccc(C(=O)O)cc3)NC(=O)[C@H](Cc3c[nH]c4ccccc34)NC2=O)cc1) [SEQ ID NO: 115] | 0.085
cyclo([TyrEtNAc]W[Phe(4-COOH)]G[Pro(trans-4-NH2)][1Nal(3S-Me)]D[dNMeA]G[Bip(4'-COOH)]W[Dab][dA][hTyr]) (SMILES CC(=O)NCCOc1ccc(C[C@@H]2NC(=O)[C@H](CCc3ccc(O)cc3)NC(=O)[C@@H](C)NC(=O)[C@H](CCN)NC(=O)[C@H](Cc3c[nH]c4ccccc34)NC(=O)[C@H](Cc3ccc(-c4ccc(C(=O)O)cc4)cc3)NC(=O)CNC(=O)[C@@H](C)N(C)C(=O)[C@H](CC(=O)O)NC(=O)[C@H]([C@@H](C)c3cccc4ccccc34)NC(=O)[C@@H]3C[C@@H](N)CN3C(=O)CNC(=O)[C@H](Cc3ccc(C(=O)O)cc3)NC(=O)[C@H](Cc3c[nH]c4ccccc34)NC2=O)cc1) [SEQ ID NO: 116] | 0.492
cyclo([TyrEtNAc]W[Phe(4-COOH)]G[Pro(trans-4-NH2)][1Nal(3S-Me)]D[dNMeA]G[Bip(4'-COOH)]KS[dA][hTyr]) (SMILES CC(=O)NCCOc1ccc(C[C@@H]2NC(=O)[C@H](CCc3ccc(O)cc3)NC(=O)[C@@H](C)NC(=O)[C@H](CO)NC(=O)[C@H](CCCCN)NC(=O)[C@H](Cc3ccc(-c4ccc(C(=O)O)cc4)cc3)NC(=O)CNC(=O)[C@@H](C)N(C)C(=O)[C@H](CC(=O)O)NC(=O)[C@H]([C@@H](C)c3cccc4ccccc34)NC(=O)[C@@H]3C[C@@H](N)CN3C(=O)CNC(=O)[C@H](Cc3ccc(C(=O)O)cc3)NC(=O)[C@H](Cc3c[nH]c4ccccc34)NC2=O)cc1) [SEQ ID NO: 112] | 0.0617
cyclo([TyrEtNAc]W[Phe(4-COOH)]G[Pro(trans-4-NH2)][1Nal(3S-Me)]D[dNMeA]G[Bip(4'-COOH)][Ala(pyrimidin-5-yl)]G[dDab][h3Pal(5-CN)]) (SMILES CC(=O)NCCOc1ccc(C[C@@H]2NC(=O)[C@H](CCc3cncc(C#N)c3)NC(=O)[C@@H](CCN)NC(=O)CNC(=O)[C@H](Cc3cncnc3)NC(=O)[C@H](Cc3ccc(-c4ccc(C(=O)O)cc4)cc3)NC(=O)CNC(=O)[C@@H](C)N(C)C(=O)[C@H](CC(=O)O)NC(=O)[C@H]([C@@H](C)c3cccc4ccccc34)NC(=O)[C@@H]3C[C@@H](N)CN3C(=O)CNC(=O)[C@H](Cc3ccc(C(=O)O)cc3)NC(=O)[C@H](Cc3c[nH]c4ccccc34)NC2=O)cc1) [SEQ ID NO: 113] | 0.0918
cyclo([Bip(4'-COOH)]W[Phe(4-COOH)]G[Pro(trans-4-NH2)][1Nal(3S-Me)]D[dNMeA]G[3Pal4Ph4CO2H]W[Dap][dA][hTyr]) (SMILES C[C@@H]1C(=O)NCC(=O)N[C@@H](Cc2ccc(-c3ccc(C(=O)O)cc3)nc2)C(=O)N[C@@H](Cc2c[nH]c3ccccc23)C(=O)N[C@@H](CN)C(=O)N[C@H](C)C(=O)N[C@@H](CCc2ccc(O)cc2)C(=O)N[C@@H](Cc2ccc(-c3ccc(C(=O)O)cc3)cc2)C(=O)N[C@@H](Cc2c[nH]c3ccccc23)C(=O)N[C@@H](Cc2ccc(C(=O)O)cc2)C(=O)NCC(=O)N2C[C@H](N)C[C@H]2C(=O)N[C@@H]([C@@H](C)c2cccc3ccccc23)C(=O)N[C@@H](CC(=O)O)C(=O)N1C) [SEQ ID NO: 12] | 0.0551
cyclo([TyrEtNAc]W[Phe(4-COOH)]G[Pro(trans-4-NH2)][1Nal(3S-Me)]D[dNMeA]G[Bip(4'-COOH)][Trp(7-aza)]G[dDab][h3Pal(5-CN)]) (SMILES CC(=O)NCCOc1ccc(C[C@@H]2NC(=O)[C@H](CCc3cncc(C#N)c3)NC(=O)[C@@H](CCN)NC(=O)CNC(=O)[C@H](Cc3c[nH]c4ncccc34)NC(=O)[C@H](Cc3ccc(-c4ccc(C(=O)O)cc4)cc3)NC(=O)CNC(=O)[C@@H](C)N(C)C(=O)[C@H](CC(=O)O)NC(=O)[C@H]([C@@H](C)c3cccc4ccccc34)NC(=O)[C@@H]3C[C@@H](N)CN3C(=O)CNC(=O)[C@H](Cc3ccc(C(=O)O)cc3)NC(=O)[C@H](Cc3c[nH]c4ccccc34)NC2=O)cc1) [SEQ ID NO: 114] | 0.0233

Second part, the binder after the results:

MRC5 IC50 [nM] | Binder
0.973 | cyclo([TyrEtNAc]W[Phe(4-COOH)]G[Pro(trans-4-NH2)][1Nal(3S-Me)]D[dNMeA]G[Bip(4'-COOH)]W[Dap][dA]A) (SMILES CC(=O)NCCOc1ccc(C[C@@H]2NC(=O)[C@H](C)NC(=O)[C@@H](C)NC(=O)[C@H](CN)NC(=O)[C@H](Cc3c[nH]c4ccccc34)NC(=O)[C@H](Cc3ccc(-c4ccc(C(=O)O)cc4)cc3)NC(=O)CNC(=O)[C@@H](C)N(C)C(=O)[C@H](CC(=O)O)NC(=O)[C@H]([C@@H](C)c3cccc4ccccc34)NC(=O)[C@@H]3C[C@@H](N)CN3C(=O)CNC(=O)[C@H](Cc3ccc(C(=O)O)cc3)NC(=O)[C@H](Cc3c[nH]c4ccccc34)NC2=O)cc1) [SEQ ID NO: 118]
0.16 | cyclo([TyrEtNAc]W[Phe(4-COOH)]G[Pro(trans-4-NH2)][1Nal(3S-Me)]D[dNMeA]G[Bip(4'-COOH)]W[Dap][Aib][hTyr]) (SMILES CC(=O)NCCOc1ccc(C[C@@H]2NC(=O)[C@H](CCc3ccc(O)cc3)NC(=O)C(C)(C)NC(=O)[C@H](CN)NC(=O)[C@H](Cc3c[nH]c4ccccc34)NC(=O)[C@H](Cc3ccc(-c4ccc(C(=O)O)cc4)cc3)NC(=O)CNC(=O)[C@@H](C)N(C)C(=O)[C@H](CC(=O)O)NC(=O)[C@H]([C@@H](C)c3cccc4ccccc34)NC(=O)[C@@H]3C[C@@H](N)CN3C(=O)CNC(=O)[C@H](Cc3ccc(C(=O)O)cc3)NC(=O)[C@H](Cc3c[nH]c4ccccc34)NC2=O)cc1) [SEQ ID NO: 117]
0.0602 | cyclo([TyrEtNAc]W[Phe(4-COOH)]G[Pro(trans-4-NH2)][1Nal(3S-Me)]D[dNMeA]G[Bip(4'-COOH)]W[Dap][dA][hTyr]) (SMILES CC(=O)NCCOc1ccc(C[C@@H]2NC(=O)[C@H](CCc3ccc(O)cc3)NC(=O)[C@@H](C)NC(=O)[C@H](CN)NC(=O)[C@H](Cc3c[nH]c4ccccc34)NC(=O)[C@H](Cc3ccc(-c4ccc(C(=O)O)cc4)cc3)NC(=O)CNC(=O)[C@@H](C)N(C)C(=O)[C@H](CC(=O)O)NC(=O)[C@H]([C@@H](C)c3cccc4ccccc34)NC(=O)[C@@H]3C[C@@H](N)CN3C(=O)CNC(=O)[C@H](Cc3ccc(C(=O)O)cc3)NC(=O)[C@H](Cc3c[nH]c4ccccc34)NC2=O)cc1) [SEQ ID NO: 119]
